{
  "source": "paper PMC2194224",
  "biological_target": "purified M22 (Sir22) protein (Streptococcus pyogenes)",
  "assay": "radioligand binding",
  "data": [
    {"substance": "human C4b-binding protein (C4BP) (from UniProt P04003 49-597; P20851 18-252) (complex)", "values": [
      {"measurement": "percent of radiolabeled ligand bound in the absence of antiserum", "value": 25, "unit": "%"}
    ]}
  ]
}
